# Patent publication US20220119536A1 (Boehringer Ingelheim, published 2022)
# Values joined by “and” are separate entries in the source; they are usually repeats but may differ in a detail not shown here. Equal values may be shown once. Read-outs that look alike come from different tables or passages of the source.
# Assays:
# Test in all cases: cell-based or functional assay
# human VEGF-A [1] = target: T1, human VEGF-A (human, UniProt P15692-4 27-191)
# human VEGF-A [2] = target: T1, human VEGF-A; remark: listed apart in the source
# human VEGF-A [3] = target: T1, human VEGF-A; remark: listed apart in the source
# human VEGF-A [4] = target: T1, human VEGF-A; remark: listed apart in the source
# human VEGF-A [5] = target: T1, human VEGF-A; remark: listed apart in the source
# human VEGF-A [6] = target: T1, human VEGF-A; remark: listed apart in the source
# human TrkB receptor [7] = target: T2, human TrkB receptor (human, UniProt Q16620 32-822)
# T2 sequence (Q16620 32-822): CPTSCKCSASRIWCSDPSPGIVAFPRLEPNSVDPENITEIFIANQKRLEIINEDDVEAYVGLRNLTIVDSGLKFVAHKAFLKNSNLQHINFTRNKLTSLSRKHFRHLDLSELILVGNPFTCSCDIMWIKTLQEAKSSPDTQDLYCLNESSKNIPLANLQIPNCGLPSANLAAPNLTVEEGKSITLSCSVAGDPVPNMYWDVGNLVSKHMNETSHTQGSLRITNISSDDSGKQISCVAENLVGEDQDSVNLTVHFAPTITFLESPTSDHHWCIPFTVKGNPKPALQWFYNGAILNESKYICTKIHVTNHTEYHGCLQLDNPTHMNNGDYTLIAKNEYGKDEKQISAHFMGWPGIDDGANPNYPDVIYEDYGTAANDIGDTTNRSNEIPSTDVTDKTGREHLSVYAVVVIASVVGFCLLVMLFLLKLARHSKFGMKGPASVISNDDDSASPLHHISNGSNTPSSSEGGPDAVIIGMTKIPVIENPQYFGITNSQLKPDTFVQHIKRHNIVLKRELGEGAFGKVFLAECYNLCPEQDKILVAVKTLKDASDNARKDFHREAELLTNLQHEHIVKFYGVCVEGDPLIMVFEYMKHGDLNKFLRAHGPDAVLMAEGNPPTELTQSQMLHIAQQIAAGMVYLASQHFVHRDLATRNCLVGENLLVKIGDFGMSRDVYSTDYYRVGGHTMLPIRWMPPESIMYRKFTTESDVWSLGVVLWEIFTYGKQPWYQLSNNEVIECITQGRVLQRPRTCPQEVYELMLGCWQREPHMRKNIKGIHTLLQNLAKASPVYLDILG
# human TrkB receptor [8] = target: T2, human TrkB receptor; remark: listed apart in the source
# T1 sequence (P15692 other isoform, or with tags, fused parts or gaps limits assumed): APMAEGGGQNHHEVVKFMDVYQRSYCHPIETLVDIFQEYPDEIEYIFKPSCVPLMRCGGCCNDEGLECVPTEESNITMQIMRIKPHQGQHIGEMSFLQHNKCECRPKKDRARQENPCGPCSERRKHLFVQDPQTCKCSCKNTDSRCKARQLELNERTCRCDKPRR
Binder,"Bottom plateau (ERK1/2 phosphorylation, counts) (human VEGF-A [1])","Bottom plateau (Src phosphorylation, counts) (human VEGF-A [1])",IC50 (ERK1/2 phosphorylation) (human VEGF-A [1]),IC50 (Src phosphorylation) (human VEGF-A [1]),"Bottom plateau (ERK1/2 phosphorylation, counts) (human VEGF-A [3])","Bottom plateau (Src phosphorylation, counts) (human VEGF-A [3])",IC50 (ERK1/2 phosphorylation) (human VEGF-A [3]),IC50 (Src phosphorylation) (human VEGF-A [3]),"Bottom plateau (ERK1/2 phosphorylation, counts) (human VEGF-A [4])","Bottom plateau (Src phosphorylation, counts) (human VEGF-A [4])",IC50 (ERK1/2 phosphorylation) (human VEGF-A [4]),IC50 (Src phosphorylation) (human VEGF-A [4]),"Bottom plateau (ERK1/2 phosphorylation, counts) (human VEGF-A [6])","Bottom plateau (Src phosphorylation, counts) (human VEGF-A [6])",IC50 (ERK1/2 phosphorylation) (human VEGF-A [6]),IC50 (Src phosphorylation) (human VEGF-A [6]),concentration for full inhibition of VEGF-induced HRMEC proliferation (human VEGF-A [2]),further results
"TPP-11736 (bispecific antibody, human IgG1, kappa, L234A L235A) light: DIQMTQSPSSLSASVGDRVTITCRTSENVYSNLAWYQQKPGKAPKLLIYAASNLQSGVPSRFSGSGSGTDYTFTISSLQPEDIATYYCQHFWGSPFTFGQGTKLEIKRTVAAPSVFIFPPSDEQLKSGTASVVCLLNNFYPREAKVQWKVDNALQSGNSQESVTEQDSKDSTYSLSSTLTLSKADYEKHKVYACEVTHQGLSSPVTKSFNRGEC heavy: not shown",3690 counts,6300 counts,5.59 nM,3.97 nM,3690 counts,6300 counts,5.59 nM,3.97 nM,3690 counts,6300 counts,5.59 nM,3.97 nM,3690 counts,6300 counts,5.6 nM,4 nM,,"IC50, inhibition of VEGF-induced ERK1/2 phosphorylation (human VEGF-A [2]): ~4 nM and ~10 nM; IC50, inhibition of VEGF-induced p38 MAPK phosphorylation (human VEGF-A [2]): ~7.4 nM; IC50 (ERK1/2 phosphorylation) (human VEGF-A [5]): 9.1 nM; IC50 (p38 MAPK phosphorylation) (human VEGF-A [5]): 7.7 nM"
"TPP-11738 (bispecific antibody, human IgG1, kappa, L234A L235A) light: DIQMTQSPSSLSASVGDRVTITCRTSENVYSNLAWYQQKPGKAPKLLIYAASNLQSGVPSRFSGSGSGTDYTFTISSLQPEDIATYYCQHFWGSPFTFGQGTKLEIKRTVAAPSVFIFPPSDEQLKSGTASVVCLLNNFYPREAKVQWKVDNALQSGNSQESVTEQDSKDSTYSLSSTLTLSKADYEKHKVYACEVTHQGLSSPVTKSFNRGEC heavy: not shown",,,,,,,,,,,,,,,,,,"IC50, inhibition of VEGF-induced ERK1/2 phosphorylation (human VEGF-A [2]): ~4 nM and ~10 nM"
"TPP-14936 (bispecific antibody, human IgG1, kappa, L234A L235A) light: DIQMTQSPSSLSASVGDRVTITCRTSENVYSNLAWYQQKPGKAPKLLIYAASNLQSGVPSRFSGSGSGTDYTFTISSLQPEDIATYYCQHFWGSPFTFGQGTKLEIKRTVAAPSVFIFPPSDEQLKSGTASVVCLLNNFYPREAKVQWKVDNALQSGNSQESVTEQDSKDSTYSLSSTLTLSKADYEKHKVYACEVTHQGLSSPVTKSFNRGEC heavy: not shown",-340 counts,4650 counts,3.49 nM,3.4 nM,,,,,,,,,-341 counts,4650 counts,3.5 nM,3.4 nM,1 nM,
"TPP-14937 (bispecific antibody, human IgG1, kappa, L234A L235A) light: DIQMTQSPSSLSASVGDRVTITCRTSENVYSNLAWYQQKPGKAPKLLIYAASNLQSGVPSRFSGSGSGTDYTFTISSLQPEDIATYYCQHFWGSPFTFGQGTKLEIKRTVAAPSVFIFPPSDEQLKSGTASVVCLLNNFYPREAKVQWKVDNALQSGNSQESVTEQDSKDSTYSLSSTLTLSKADYEKHKVYACEVTHQGLSSPVTKSFNRGEC heavy: not shown",-926 counts,4570 counts,5.58 nM,5.83 nM,,,,,,,,,-927 counts,4570 counts,5.6 nM,5.8 nM,4 nM,
"human BDNF (ligand, UniProt P23560 129-247, looked up) HSDPARRGELSVCDSISEWVTAADKKTAVDMSGGTVTVLEKVPVSKGQLKQYFYETKCNPMGYTKEGCRGIDKRHWNSQCRTTQSYVRALTMDSKKRIGWRFIRIDTSCVCTLTIKRGR",,,,,,,,,,,,,,,,,,EC50 (pERK) (human TrkB receptor [7]): 0.507 nM; EC50 (pTrkB) (human TrkB receptor [7]): 1.22 nM; EC50 (pERK) (human TrkB receptor [8]): 0.282 nM; EC50 (pTrkB) (human TrkB receptor [8]): 1.28 nM
"TPP-13788 (B20 IgG) (antibody, V domains shown) VH: EVQLVESGGGLVQPGGSLRLSCAASGFTINASWIHWVRQAPGKGLEWVGAIYPYSGYTNYADSVKGRFTISADTSKNTAYLQMNSLRAEDTAVYYCARWGHSTSPWAMDYWGQGTLVTVSS VL: DIQMTQSPSSLSASVGDRVTITCRASQVIRRSLAWYQQKPGKAPKLLIYAASNLASGVPSRFSGSGSGTDFTLTISSLQPEDFATYYCQQSNTSPLTFGQGTKVEIK",,,,,,,,,,,,,,,,,,fold increase of VEGF-A scavenging potency vs. TPP-11736 (human VEGF-A [2]): ~3 fold; IC50 (ERK1/2 phosphorylation) (human VEGF-A [5]): 3 nM; IC50 (p38 MAPK phosphorylation) (human VEGF-A [5]): 2.4 nM
"TPP-14938 (bispecific antibody, human IgG1, kappa, L234A L235A) light: DIQMTQSPSSLSASVGDRVTITCRASQVIRRSLAWYQQKPGKAPKLLIYAASNLASGVPSRFSGSGSGTDFTLTISSLQPEDFATYYCQQSNTSPLTFGQGTKVEIKRTVAAPSVFIFPPSDEQLKSGTASVVCLLNNFYPREAKVQWKVDNALQSGNSQESVTEQDSKDSTYSLSSTLTLSKADYEKHKVYACEVTHQGLSSPVTKSFNRGEC heavy: not shown",,,,,1330 counts,5480 counts,2.71 nM,1.8 nM,1330 counts,5480 counts,2.71 nM,1.8 nM,,,,,> 16 nM,
"TPP-14939 (bispecific antibody, human IgG1, kappa, L234A L235A) light: DIQMTQSPSSLSASVGDRVTITCRASQVIRRSLAWYQQKPGKAPKLLIYAASNLASGVPSRFSGSGSGTDFTLTISSLQPEDFATYYCQQSNTSPLTFGQGTKVEIKRTVAAPSVFIFPPSDEQLKSGTASVVCLLNNFYPREAKVQWKVDNALQSGNSQESVTEQDSKDSTYSLSSTLTLSKADYEKHKVYACEVTHQGLSSPVTKSFNRGEC heavy: not shown",,,,,1140 counts,5540 counts,2.51 nM,1.16 nM,1140 counts,5540 counts,2.51 nM,1.16 nM,,,,,> 16 nM,
